# Where two headings read alike, the source gives them in different places.
# What was measured:
# AURKB = AURKB (UniProt Q96GD4); test: co-precipitation from cells, immunoblot; conditions: reference: NSFL1C wild type; sites S140
substance,measurement,setting,value
AURKB: AURKB-3KR (K31R/K56R/K85R),enzymatic_activity,ubiquitination at K31,decreases
same,localisation_or_trafficking,ubiquitination at K31,decreases
same,enzymatic_activity,ubiquitination at K56,decreases
same,localisation_or_trafficking,ubiquitination at K56,decreases
same,enzymatic_activity,ubiquitination at K85,decreases
same,localisation_or_trafficking,ubiquitination at K85,decreases
NSFL1C (from UniProt Q9UNZ2) NSFL1C-S140A,binding against the reference,AURKB,weaker
NSFL1C: NSFL1C-S140A,other,phosphorylation at S140,abolishes
